Assay results from patent US20230192845A1.

T1: hCD96-humanIgG1 fusion protein (human) (UniProt P40200)
T1 sequence: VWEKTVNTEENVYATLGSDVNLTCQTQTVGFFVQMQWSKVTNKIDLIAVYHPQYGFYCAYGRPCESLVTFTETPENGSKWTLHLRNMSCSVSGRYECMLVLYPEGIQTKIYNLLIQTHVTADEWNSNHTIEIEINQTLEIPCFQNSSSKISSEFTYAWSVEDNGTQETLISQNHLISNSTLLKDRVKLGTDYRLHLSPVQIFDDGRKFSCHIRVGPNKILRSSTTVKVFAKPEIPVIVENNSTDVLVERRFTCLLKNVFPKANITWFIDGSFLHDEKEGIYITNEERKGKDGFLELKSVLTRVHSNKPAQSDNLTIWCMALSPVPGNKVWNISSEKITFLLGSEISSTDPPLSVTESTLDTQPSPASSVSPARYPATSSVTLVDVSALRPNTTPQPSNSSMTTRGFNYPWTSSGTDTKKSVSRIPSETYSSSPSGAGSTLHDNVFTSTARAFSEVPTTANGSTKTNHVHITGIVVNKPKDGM


Biological target: T1, hCD96-humanIgG1 fusion protein (human)
Experiment: SPR (Biacore), hCD96-hFc captured by anti-huFc

Binder	Kd [nM]	koff [s⁻¹]	kon [M⁻¹ s⁻¹]
BL006-4-20G5-20K5 (antibody, V domains shown) VH: EVQLAESGGDLVTPGGSLKLSCAASGFTFSSYGMSWVRQTPDKRLEWVATITHGGSYIYYPDSVKGRFTLSRDNAKNTLYLQMSSLKSEDTAMYYCIRHADYARFAYWGQGTLVTVSA VL: DIQMTQTTSSLSASLGDRVTISCRPSQDISNYLNWYQQKPDGTVKLLIYYTSRLHSGVPSRFSGSGSGTDYSLTISNLEQEDIATYFCQQGNTLPWTFGGGTKLEIK	0.825	0.00057	691000
BL006-4-31G1-31K3 (antibody, V domains shown) VH: QVQLQQSGPELVKPGASVKISCKTSGFTFTDYYINWVKQRPGQGLEWIGWIFPGSGSSFYSEIFKGQATLTVDKSSSTAYMLLSSLTSEDSAVYFCARRNYYGYGAYAMDYWGQGTSVTVSS VL: DIQMNQSPSSLSASLGDTITITCRASQSINFWLSWYQQKPGNIPKLLIYKASNLHTGVPSRFSGSGSGTDFTLTISSLQPEDIATYYCLQGQSYPLTFGGGTKLEIK	13.2	0.0007	53100
BL006-19-183G3-183K4 (antibody, V domains shown) VH: QVTLNESGPGILQPSQTLSLTCSFSGFSLTTYGMGVGWIRQPSGKSLEWLANIWWTEDKYYNSALKSRLTISTDTSHNQVFLKISSVDTEDTATYYCAQMGPEVYSAMDYWGQGTSVTVSS VL: DIVMTPSQKFMSTTVGDRVSITCKASQNVGTAVAWYQQKPGHSPKLLIYSASNRNTGVPDRFTGSGSGTDFTLTISNMQSEDLADYFCHQYSRYPWTFGGGTKLEIK	0.45	0.000296	656000
BL006-19-190G4-190K6 (antibody, V domains shown) VH: EVQLVESGGGLVQPGGSLKLSCAASGFTFSNYGMSWVRQTPDKRLELVATINSNGGSTYYPDSVKGRFTISRDNAKNTLYLQMSSLKSEDTAMYYCTKRGAWYFDVWGTGTTVTVSS VL: DIQMTQSSSSFSVSLGDRVTITCKASEDIYNRLAWYQQKPGNAPRLLISSATSLETGVSSRFSGSGSGKDYTLSITSLQTEDVATYYCQQYWTTPTWTFGGGTKLEIK	2.97	0.000444	150000
BL006-19-134G5-134K4 (antibody, V domains shown) VH: QVQLQQPGAELVKPGASVKLSCKASDYTFTTYWMHWVKQRPGQGLEWIGMIHPNSDTTLYNEKFRSQATLTVDKSSSTAYIQLSRLTSEDSAVYYCVVTGTNFDYWGQGTTLAVSS VL: QVVLTQSPAIMSASPGEKVTMTCSATSSVSYMYWYQQKPGSSPKPWIYRTSNLASGVPVRFSGSGSGTSYSLTISSMEAEDAATYYCQQWSSNPLTFGGGTKLELK	0.707	9.88e-05	140000
BL006-19-21G1-21K1 (antibody, V domains shown) VH: QVQLQQPGAELVKPGASVKMSCKASGYTFISYWITWVKQRPGQGLEWIGDIYPGSGHTNYNEKFKSKATLTVDTSSSTAYMQLSSLTSEDSAVYYCARPTVEAMDYWGQGTSVTVSS VL: QIVLTQSPAIMSASPGEKVTMTCSASSSVNYMHWYQQRSGTSPKRWIYDTSKLASGVPARFSGSGSGTSYSLTISSMEAEDAATYYCQQWSNNPLTFGAGTKLELK	6.75	0.000988	146000
BL006-19-55G10-55K7 (antibody, V domains shown) VH: QVQLQQSGAEVVRPGTSVKMSCKAAGYTFTDNWIDWVKQRPGHGLDWIGNIFPGGNYTNYNEKFKGKATLTADTSSSTAYMQLINLTSEDSAIYYCVRAVADSQFAYWGQGTLVTVSA VL: QIVLTQSPAIMSVSPGEKVTMTCSASSRVTYMYWYQQKPGSSPKPWIYRTSNLASGVPVRFSGSGSGTSYSLTISSMEAEDAATYYCQQWSSNPLTFGAGTKLELK	3.45	0.000501	145000
BL006-19-352G9-352K8 (antibody, V domains shown) VH: QVQLQQPGAELVKPGASVKLSCKASGYTFTSYWMHWVKQRPGQGLEWIGMIHPNGDITDYNEKFKSKATLAVDESSSTAFMQLNSLTSEDSAFYYCARASYYGSLYWGQGTTLTVSS VL: DIVMTQSQKFMSTSVGDRVSVTCKASQNVGIAVAWYQKKPGQSPKTLIYSASTRYTGVPDRFTGSGSGTDFTLTINDVQSEDLADYFCQQYGSSPLTFGAGTKLELK	23.4	0.000796	34100
BL006-19-363G1-363K1 (antibody, V domains shown) VH: QVQLQQPGAELVKPGASVKLSCKASGYTFTTYWIHWVKQRPGQGLEWIGMILPNSGTTIYNEKFRSQATLTVDKSSSAAYMQLSRLTSEDSAVYYCAVTGTNFDYWGQGTTLTVSS VL: QIVLTQSPAIMSASPGEKVTMTCSASSSVSYMYWYQQKPGSSPKPWIYRTSNLASGVPVRFSGSGFGTSYSLTISNMEAEDAATYYCQQWSSNPLTFGTGTKLELK	3.5	0.000585	167000
BL006-19-370G9-370K16 (antibody, V domains shown) VH: QVQLQQSGAELGRPGTSVKMSCKAAGYTFTNYWIGWVKQRPGHGLEWIGDIYPGGGYTNYNEKFKGKATLTADTSSSTAYIQLSSLTSEDSAIYYCARSGYYDGSPLAMDYWGQGTSVTVS VL: QIVLTQSPTIMSASPGEKVTMTCSASSSVSYMHWYQQKSGTSPKRWIYDTSKLASGVPARFSGSGSGTSYSLTISSMEAEDAATYYCQQWSSNPPTFGSGTKLEIK	42.3	0.00193	45500
BL006-19-29G5-29K1 (antibody, V domains shown) VH: QVTLKESGPGILQSSQTLSLTCSFSGFSLSTFGMGVSWIRKPSGKGLEWLAHIFWDDDKRYNPSLKSRLTISKDTSSNQVFLMINSMDIADTATYYCTRGSNWFAYWGQGTLVTVSA VL: DIVLTQSPASLAVSLGQRATISCRASESVDSYGNSFMHWYQQKPGQPPKLLIYRASNLESGIPARFSGSGSRTDFTLTINPVEADDVATYYCQQSNEDPLTFGAGTKLELK	0.182	0.000163	896000
BL006-4-52G6-52K7 (antibody, V domains shown) VH: QVQLQQPGAELVKPGASVKLSCKASGYSFTSYWMHWVKQRPGQGLEWIGQIDPSDSYTNYNQKFKGKATLTVDKSSSTAYMQLSSLTSEDSAVYYCASGNYGPYLGNYFDYWGQGTTLTVPS VL: DIVMSQSPSSLVVSVGEKVTMSCKSSQSLLHSTNQKNYLAWYQQKPGQSPKLLIYWASTRESGVPDRFTGSGSGTDFTLTISSVKAEDLVVYYCQQYYNYPYTFGGGTKLEIK	2.83	0.000363	128000
BL006-4-61G5-61K1 (antibody, V domains shown) VH: EVKLEESGGGLVQPGGSMKLSCVASGFTFSNYWMNWVRQSPEKGLEWVAQIRFKSDNYATHYAESVKGRFTISRDDSKSSVYLQMHNLRAEDTGIYYCTEFAYWGQGTLVTVSA VL: QILLTQSPAIMSASPGEKVTMTCSASSRVNSRFLNWYQQKSGVSPKLWIYGTSNLASGVPARFSGSGSGTSYSLTISSVEAEDVATYYCQQYQSDPPITFGAGTRLELI	0.364	0.000153	420000
BL006-11-5G1-5K3 (antibody, V domains shown) VH: EVQLVESGGGLVKPGGSLKLSCAASGFTFSSYAMSWVRQTPEKRLEWVAAINTDGASTYFPATVKDRFTISRDNAKNTLYLQMSSLRSEDTALYYCARPLEPGSWFAYWGQGTLVTVSA VL: DVLMTQTPLSLPVSLGDQASISCRSSQSIVHSNGNTYLEWYLQKPGQSPKVLIYKVSNRFSGVPDRISGSGSGTDFTLKISRVEAGDLGVYYCFQGSHVPYTFGGGTKLEIK	3.47	0.000579	167000
BL006-8-3G9-3K4 (antibody, V domains shown) VH: QVQLQQSGAELVRPGASVKLSCKASGYRFTDYEMEWVKQTPVHGLEWIGAIDPETGGTAYNQKFKGKATVTADKSSRTAYMELRSLTSEDSAVYYCTREGDGSYGAYWGQGTLVTVSA VL: DVMMTQTPLSLPVSLGDQASISCRSSQSIVYSNGNTYLEWYLQKPGQSPKLLMYKVSNRFSGVPDRFSGSGSGTDFTLKISRVEAEDLGVYYCFQGSHAPWTFGGGTKLEIK	0.351	0.000192	548000
BL006-9-1G1-1K1 (antibody, V domains shown) VH: EVKLVESGGGLVKPGGSLKLSCAASGFTFSSYAMSWVRQTPERGLEWVAAIQSNGGSTFYPDTVKDRFTISRDNAKNTLYLQMSSLRSEDTALYYCVRGPFDYWGQGTTLTVSS VL: QIVLTQSPAIMSASPGQKVTIPCSASSSVNYIHWFQQKLGSSPKLWIYDTSKLTPGVPARFSGSGSGTSYSLTISSMEAEDAASYFCHQWRSYPPTFGGGTKLEIK	0.198	0.00016	810000
BL006-9-15G1-15K5 (antibody, V domains shown) VH: QAYLQQSGAELVRPGASVKMSCKASGYTFTSYNMHWVKQTPRQGLEWIGAVIPGNGDSFYNQKFKGKATLTVDKSSSTAYMQLSSLTSEDSAVYFCGRSSSGCIAYWGQGTLVTVSA VL: DIVLTQSPASLAVSLGQRATISCRVSGSVDYDGDSYMNWYQQKPGQPPKLLIYAASNLESGIPARFSGSGSETDFTLNIHPVEEEDAATYYCLQSNEAPWTFGGGTKVEIK	4.6	0.00275	598000
